Assay results: patent US7754689B2, “Finger-1 peptide analogs of the TGF-β superfamily” (Wyeth LLC, priority 2006, dated 2010)
One block for each molecule: values may come before it. No end group written: not given here.

Experiments:
[1] = target: T1, BMP-12 (Homo sapiens, UniProt Q7Z4P5); assay: Filter-plate binding and elution of BMP-12 on peptide-coupled affinity resins
T1 sequence (Q7Z4P5 322-450): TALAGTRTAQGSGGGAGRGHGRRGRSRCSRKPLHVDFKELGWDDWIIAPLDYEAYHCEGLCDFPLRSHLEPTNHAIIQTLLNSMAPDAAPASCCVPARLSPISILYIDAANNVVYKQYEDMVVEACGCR
Procedure: The coupled resins, plus an unconjugated resin for use as a control, were suspended in 16% ethanol, 150 mM NaCl, and 20 mM Tris buffer at pH 7.5 at a 25% v/v ratio (e.g., […]). A Tecan liquid-handling robot was employed to aliquot 200 μL of each slurry into one of eight rows of a 96 well polystyrene filter plate (0.45 μm hydrophilic filters, Whatman catalog number 770-1806). Spinning at 1200 g for 3 min removed the liquid phase, leaving 50 μL of wet resin on the filters. The resins were then equilibrated with the loading buffers listed in Table 6 (K is a coefficient characterizing the strength of protein binding to a particular resin in a particular buffer). […] The resins were loaded by transferring 150 μL from the load plate to the filter plate and then incubating 20 min on a shaking platform to facilitate binding. The filter plate was spun down and the filtrate collected in a 96 well UV plate. The protein concentration in the filtrate, or flow-through, was calculated as (A280-A320)/1.3. The filter plate was then washed with 150 μL of 100 mM acetic acid, followed by 150 μL of 4M guanidine-HCl and 50 mM sodium acetate at pH 4.0. The protein concentration was measured in the new filtrate as described above. […] However, for peptides 750 and 751, the binding was strong in 25 mM MES at pH 6 but weak in 50 mM acetic acid with 0.1 M NaCl at pH 3.0, which can allow an efficient binding-elution process without the need for chaotrops or organic reagents. Flow-through and acetic acid elution samples from column 4 of the plate (loaded with MES pH 6) were analyzed on a gel (FIG. 14).

[2] = target: T2, BMP-12 (UniProt Q7Z4P5 322-450, limits assumed); assay: peptide resin, filter plate; load 4: 25 mM MES pH 6.0
T2 construct: also called BMP12/GDF7
T2 sequence (looked up): T1 sequence (Q7Z4P5 322-450)
Procedure: (§1) The coupled resins, plus an unconjugated resin for use as a control, were suspended in 16% ethanol, 150 mM NaCl, and 20 mM Tris buffer at pH 7.5 at a 25% v/v ratio (e.g., 25% ethanol, 75% Tris buffer). A Tecan liquid-handling robot was employed to aliquot 200 μL of each slurry into one of eight rows of a 96 well polystyrene filter plate (0.45 μm hydrophilic filters, Whatman catalog number 770-1806). Spinning at 1200 g for 3 min removed the liquid phase, leaving 50 μL of wet resin on the filters. The resins were then equilibrated with the loading buffers listed in Table 6 (K is a coefficient characterizing the strength of protein binding to a particular resin in a particular buffer). […] The resins were loaded by transferring 150 μL from the load plate to the filter plate and then incubating 20 min on a shaking platform to facilitate binding. The filter plate was spun down and the filtrate collected in a 96 well UV plate. The protein concentration in the filtrate, or flow-through, was calculated as $(A280-A320)/1.3$. The filter plate was then washed with 150 μL of 100 mM acetic acid, followed by 150 μL of 4M guanidine-HCl and 50 mM sodium acetate at pH 4.0. The protein concentration was measured in the new filtrate as described above. […] Flow-through and acetic acid elution samples from column 4 of the plate (loaded with MES pH 6) were analyzed on a gel (FIG. 14).

[3] = target: T2, BMP-12; assay: peptide resin, filter plate; load 3: 25 mM Na Acetate pH 5.0
Procedure: as §1

[4] = target: T2, BMP-12; assay: peptide resin, filter plate; load 11: 50 mM Tris, 0.25 M NaCl, 30% MPD, pH 8.0
Procedure: as §1

[5] = target: T2, BMP-12; assay: peptide resin, filter plate; load 2: 50 mM Acetic Acid, 0.1 M NaCl, pH 4.0
Procedure: as §1

[6] = target: T2, BMP-12; assay: peptide resin, filter plate; load 10: 50 mM Tris, 0.1 M NaCl, 40% MPD, pH 8.0
Procedure: as §1

[7] = target: T2, BMP-12; assay: peptide resin, filter plate; load 1: 50 mM Acetic Acid, 0.1 M NaCl, pH 2.9
Procedure: as §1

[8] = target: T2, BMP-12; assay: peptide resin, filter plate; load 5: 25 mM HEPES pH 7.0
Procedure: as §1

[9] = target: T2, BMP-12; assay: peptide resin, filter plate; load 6: 1M CHES pH 9.7
Procedure: as §1

[10] = target: T2, BMP-12; assay: peptide resin, filter plate; load 12: 50 mM Tris, 0.1 M NaCl, 20% MPD, pH 8.0
Procedure: as §1

[11] = loaded in condition 1: 50 mM Acetic Acid, 0.1 M NaCl, pH 2.9
[12] = loaded in condition 2: 50 mM Acetic Acid, 0.1 M NaCl, pH 4.0
[13] = loaded in condition 3: 25 mM Na Acetate pH 5.0
[14] = loaded in condition 4: 25 mM MES pH 6.0
[15] = loaded in condition 5: 25 mM HEPES pH 7.0
[16] = 50 mM acetic acid with 0.1 M NaCl at pH 3.0

Yield (BMP-12 recovered from resin) [1, 11]: 85%
Yield (BMP-12 recovered from resin) [1, 12]: 84%
Yield (BMP-12 recovered from resin) [1, 13]: 89%
Yield (BMP-12 recovered from resin) [1, 14]: 87%
Yield (BMP-12 recovered from resin) [1, 15]: 87%
binding of BMP12 by resin coupled to peptide ([1]; loading buffers 1-5): high affinity
Molecule: Ac-RDLGWQDWIIAPEGYAAFYSDGEK [Peptide 748]

Yield (BMP-12 recovered from resin) [1, 11]: 81%
Yield (BMP-12 recovered from resin) [1, 12]: 68%
Yield (BMP-12 recovered from resin) [1, 13]: 90%
Yield (BMP-12 recovered from resin) [1, 14]: 88%
Yield (BMP-12 recovered from resin) [1, 15]: 90%
binding of BMP12 by resin coupled to peptide ([1]; loading buffers 1-5): high affinity
Molecule: Ac-LYVDFSDVGWNDWIVAPPGYHAFYSHGEK [Peptide 747]

binding of BMP12 by resin coupled to peptide ([1]; 25 mM MES at pH 6): strong
binding of BMP12 by resin coupled to peptide [1, 16]: weak
Yield (BMP-12 recovered from resin) [1, 11]: 104%
Yield (BMP-12 recovered from resin) [1, 12]: 97%
Yield (BMP-12 recovered from resin) [1, 13]: 100%
Yield (BMP-12 recovered from resin) [1, 14]: 92%
Yield (BMP-12 recovered from resin) [1, 15]: 107%
Molecule: Ac-SDVGWNDWIVAPPGYHAFYSHGEK [Peptide 751]

binding of BMP12 by resin coupled to peptide ([1]; 25 mM MES at pH 6): strong
binding of BMP12 by resin coupled to peptide [1, 16]: weak
Yield (BMP-12 recovered from resin) [1, 11]: 100%
Yield (BMP-12 recovered from resin) [1, 12]: 93%
Yield (BMP-12 recovered from resin) [1, 13]: 96%
Yield (BMP-12 recovered from resin) [1, 14]: 85%
Yield (BMP-12 recovered from resin) [1, 15]: 109%
Molecule: Ac-SDVGWNDWIVAPPGYHAFYCHGEK [Peptide 750]

Yield (BMP-12 recovered from resin) [1, 11]: 86%
Yield (BMP-12 recovered from resin) [1, 12]: 88%
Yield (BMP-12 recovered from resin) [1, 13]: 90%
Yield (BMP-12 recovered from resin) [1, 14]: 88%
Yield (BMP-12 recovered from resin) [1, 15]: 102%
binding of BMP12 by resin coupled to peptide ([1]; loading buffers 1-5): high affinity
Molecule: Ac-ELGWDDWIIAPLDYEAYHSEGLK [Peptide 749]

Yield (BMP-12 recovered from resin) [1, 11]: 91%
Yield (BMP-12 recovered from resin) [1, 12]: 88%
Yield (BMP-12 recovered from resin) [1, 13]: 97%
Yield (BMP-12 recovered from resin) [1, 14]: 87%
Yield (BMP-12 recovered from resin) [1, 15]: 100%
Molecule: Ac-LYV**SDVGWNDWIVK (Ac-LYVSDVGWNDWIVK; not fully specified (residue 3); printed as Ac-LYV**SDVGWNDWIVK) [Peptide 746]

The remaining lines, values behind:

Molecule: Ac-VAPPGYHAFYSHGEK [Peptide 745]
Yield (BMP-12 recovered from resin) [1, 11]: 100%
Yield (BMP-12 recovered from resin) [1, 12]: 103%
Yield (BMP-12 recovered from resin) [1, 13]: 105%
Yield (BMP-12 recovered from resin) [1, 14]: 116%
Yield (BMP-12 recovered from resin) [1, 15]: 103%

B1: BMP2 Full peptide 747 (peptide)
peptide: Ac-LYVDFSDVGWNDWIVAPPGYHAFYSHGEK
100 mM HAc elution K [2]: 1
100 mM HAc elution conc [2]: 0.324 mg/mL
4M Gnd, 50 mM NaAc pH 4 Strip Conc [2]: 0.065 mg/ml
Flow-through K [2]: 38
Flow-through conc [2]: 0.035 mg/mL
100 mM HAc elution K [3]: 2
100 mM HAc elution conc [3]: 0.274 mg/mL
4M Gnd, 50 mM NaAc pH 4 Strip Conc [3]: 0.111 mg/ml
Flow-through K [3]: 28
Flow-through conc [3]: 0.046 mg/mL
Flow-through K [4]: 0
Flow-through conc [4]: 0.45 mg/mL
100 mM HAc elution K [5]: 6
100 mM HAc elution conc [5]: 0.147 mg/mL
4M Gnd, 50 mM NaAc pH 4 Strip Conc [5]: 0.15 mg/ml
Flow-through K [5]: 47
Flow-through conc [5]: 0.029 mg/mL
Flow-through K [6]: 0
Flow-through conc [6]: 0.482 mg/mL
100 mM HAc elution K [7]: 6
100 mM HAc elution conc [7]: 0.123 mg/mL
4M Gnd, 50 mM NaAc pH 4 Strip Conc [7]: 0.15 mg/ml
Flow-through K [7]: 10
Flow-through conc [7]: 0.114 mg/mL
100 mM HAc elution K [8]: 1
100 mM HAc elution conc [8]: 0.255 mg/mL
4M Gnd, 50 mM NaAc pH 4 Strip Conc [8]: 0.074 mg/ml
Flow-through K [8]: 11
Flow-through conc [8]: 0.103 mg/mL
Flow-through K [9]: -1
Flow-through conc [9]: 0.659 mg/mL
Flow-through K [10]: 0
Flow-through conc [10]: 0.438 mg/mL

B2: BMP12 N-trun_1S peptide 749 (peptide)
peptide: Ac-ELGWDDWIIAPLDYEAYHSEGLK
100 mM HAc elution K [2]: 1
100 mM HAc elution conc [2]: 0.321 mg/mL
4M Gnd, 50 mM NaAc pH 4 Strip Conc [2]: 0.079 mg/ml
Flow-through K [2]: 56
Flow-through conc [2]: 0.025 mg/mL
100 mM HAc elution K [3]: 2
100 mM HAc elution conc [3]: 0.275 mg/mL
4M Gnd, 50 mM NaAc pH 4 Strip Conc [3]: 0.126 mg/ml
Flow-through K [3]: 42
Flow-through conc [3]: 0.032 mg/mL
Flow-through K [4]: 0
Flow-through conc [4]: 0.416 mg/mL
100 mM HAc elution K [5]: 4
100 mM HAc elution conc [5]: 0.175 mg/mL
4M Gnd, 50 mM NaAc pH 4 Strip Conc [5]: 0.196 mg/ml
Flow-through K [5]: 26
Flow-through conc [5]: 0.05 mg/mL
Flow-through K [6]: 0
Flow-through conc [6]: 0.434 mg/mL
100 mM HAc elution K [7]: 6
100 mM HAc elution conc [7]: 0.098 mg/mL
4M Gnd, 50 mM NaAc pH 4 Strip Conc [7]: 0.141 mg/ml
Flow-through K [7]: 5
Flow-through conc [7]: 0.175 mg/mL
100 mM HAc elution K [8]: 1
100 mM HAc elution conc [8]: 0.28 mg/mL
4M Gnd, 50 mM NaAc pH 4 Strip Conc [8]: 0.093 mg/ml
Flow-through K [8]: 9
Flow-through conc [8]: 0.116 mg/mL
Flow-through K [9]: -1
Flow-through conc [9]: 0.653 mg/mL
Flow-through K [10]: 1
Flow-through conc [10]: 0.404 mg/mL

B3: BMP5 peptide 748 (peptide)
peptide: Ac-RDLGWQDWIIAPEGYAAFYSDGEK
100 mM HAc elution K [2]: 2
100 mM HAc elution conc [2]: 0.304 mg/mL
4M Gnd, 50 mM NaAc pH 4 Strip Conc [2]: 0.091 mg/ml
Flow-through K [2]: 62
Flow-through conc [2]: 0.022 mg/mL
100 mM HAc elution K [3]: 2
100 mM HAc elution conc [3]: 0.264 mg/mL
4M Gnd, 50 mM NaAc pH 4 Strip Conc [3]: 0.14 mg/ml
Flow-through K [3]: 57
Flow-through conc [3]: 0.024 mg/mL
Flow-through K [4]: 1
Flow-through conc [4]: 0.375 mg/mL
100 mM HAc elution K [5]: 6
100 mM HAc elution conc [5]: 0.151 mg/mL
4M Gnd, 50 mM NaAc pH 4 Strip Conc [5]: 0.229 mg/ml
Flow-through K [5]: 59
Flow-through conc [5]: 0.023 mg/mL
Flow-through K [6]: 1
Flow-through conc [6]: 0.407 mg/mL
100 mM HAc elution K [7]: 6
100 mM HAc elution conc [7]: 0.123 mg/mL
4M Gnd, 50 mM NaAc pH 4 Strip Conc [7]: 0.177 mg/ml
Flow-through K [7]: 11
Flow-through conc [7]: 0.106 mg/mL
100 mM HAc elution K [8]: 2
100 mM HAc elution conc [8]: 0.257 mg/mL
4M Gnd, 50 mM NaAc pH 4 Strip Conc [8]: 0.105 mg/ml
Flow-through K [8]: 23
Flow-through conc [8]: 0.055 mg/mL
Flow-through K [9]: -1
Flow-through conc [9]: 0.626 mg/mL
Flow-through K [10]: 1
Flow-through conc [10]: 0.383 mg/mL
